According to doi:10.1101/2025.10.18.683246 (bioRxiv, 2025):

How the values were obtained:
[1] = target: the molecule itself; test: SDS-PAGE with or without DTT and Western blot
[2] = target: T1, N-terminal cleavage product of CLCA1 (NTP) (human, UniProt A8K7I4 22-694, N-glycans at Asn503 and Asn585); test: cryo-EM structure
T1 sequence (looked up): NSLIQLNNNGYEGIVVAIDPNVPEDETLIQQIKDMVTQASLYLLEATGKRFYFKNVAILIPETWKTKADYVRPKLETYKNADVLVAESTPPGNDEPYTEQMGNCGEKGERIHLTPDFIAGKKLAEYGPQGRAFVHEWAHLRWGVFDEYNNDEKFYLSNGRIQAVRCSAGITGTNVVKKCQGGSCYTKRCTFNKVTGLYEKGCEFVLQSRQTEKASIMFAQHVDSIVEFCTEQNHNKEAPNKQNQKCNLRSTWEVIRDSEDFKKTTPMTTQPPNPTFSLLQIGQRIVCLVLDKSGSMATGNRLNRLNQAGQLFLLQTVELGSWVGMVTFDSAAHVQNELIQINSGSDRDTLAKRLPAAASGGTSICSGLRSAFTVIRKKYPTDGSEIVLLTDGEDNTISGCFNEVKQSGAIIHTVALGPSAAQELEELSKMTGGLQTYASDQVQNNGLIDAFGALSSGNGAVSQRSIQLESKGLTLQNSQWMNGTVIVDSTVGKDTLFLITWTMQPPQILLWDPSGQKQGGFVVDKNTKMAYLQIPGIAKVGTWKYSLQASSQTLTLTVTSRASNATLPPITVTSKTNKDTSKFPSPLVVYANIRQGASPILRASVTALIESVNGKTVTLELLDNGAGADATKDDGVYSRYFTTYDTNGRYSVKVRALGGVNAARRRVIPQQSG

binding result [2]: binds
B1: C-terminal cleavage product of CLCA1 (CTP) (domain or fragment, human, UniProt A8K7I4 695-914, looked up)
chain: ALYIPGWIENDEIQWNPPRPEINKDDVQHKQVCFSRTSSGGSFVASDVPNAPIPDLFPPGQITDLKAEIHGGSLINLTWTAPGDDYDHGTAHKYIIRISTSILDLRDKFNESLQVNTTALIPKEANSEEVFLFKPENITFENGTDLFIAIQAVDKVDLKSEISNIARVSLFIPPQTPPETPSPDETSAPCPNIHINSTIPGIHILKIMWKWIGELQLSIA
modifications: N-glycans at Asn770, Asn804, Asn810, Asn831 and Asn836
binding result [1]: binds
